# Test results from patent US12565680B2, “Cancer neoantigens and their utilities in cancer vaccines and TCR-based cancer immunotherapy” (THE METHODIST HOSPITAL SYSTEM, priority 2018, dated 2026).
# B1: … MEGAPAGPGGRTAACLSCTSRCLSRRPWKRSWSAGSCPGMPHRSPDQGRF (peptide)
# chain: EALAFLMAQGAMLAAQERRVPRAAEVPGAQGQQGPRGREEAPRGVRMAVPLLRRMEGAPAGPGGRTAACLSCTSRCLSRRPWKRSWSAGSCPGMPHRSPDQGRF
# notes: 109 aa peptide from frame-shifted reading frame (ORF2) of CTAG2 (LAGE1b)
# Experiments:
# T-cell clones of 135TIL = assay: IFN-γ ELISA with tumor-reactive T-cell clones of 135TIL; assay type: cell-based, human; details: peptide titration; 135-1C1 (ADIPOR2), 135-1E1 (LAGE1b)
# Description: Thus, immunogenic antigens can be generated from various sources or mechanisms [such as alternative ORFs, noncoding regions (3′ and 5′ UTRs, introns, noncoding RNA)]. […] All other tumor-reactive CD4^+ T-cell clones and CD8^+ T-cell clones recognized the mutation-derived neoantigens. […] To identify these two antigens recognized by these two CD4^+ T-cell clones, an Ii-fusion cDNA library derived from 135 mel tumor cells was constructed using experimental procedures. The Ii-fusion cDNA library pools (approximately 100 cDNA clones per pool) were transfected into 293IMDR3/DP4 or 293IMDR4/DP4 cells, followed by co-culturing with CD4^+ T-cell clones (135-1C1 or 135-1E1). After 2×10^5 cDNA clones, positive cDNA library pools that stimulate two T-cell clones, respectively, were identified based on IFN-γ release by ELISA (FIG. 6B). The positive pools were then transformed into Stbl3™ Escherichia coli, and single bacteria colonies were picked for plasmid DNA isolation. […] The 135-1E1 T cell-reactive cDNA clones encoded the product translated from an alternative reading frame of CTAG2 (LAGE1b) (FIG. 6C and FIG. 7A). […]
# T-cell cloning and expansion were performed. […] On day 14, T-cell clones were harvested, counted, tested for tumor reactivity. […]
# 135TIL = assay: IFN-γ ELISA with bulk 135TIL (IVT-RNA electroporated 135EBV-B cells; peptide titration and truncation); assay type: cell-based, human; details: serially diluted peptides
# Experimental: Due to low transfection efficiency of EBV-B cells, in vitro transcribed (IVT) RNA of 24 TMGs were generated and then electroporated them into 135EBV-B cells, followed by adding 135TIL cells for antigen recognition based on cytokine release assay.
# 96-well tissue culture plates were coated with phosphate-buffered saline (PBS, GenDEPOT) containing 50 μg/ml poly-L-lysine (Millipore Sigma) at 37° C. 10 min later, the plates were rinsed twice with PBS. Tumor cells or 293-APCs were seeded at 5×10^4/well in the 96-well plate and cultured at 37° C., 5% CO2 for at least 4 h. For plasmid transfection, 250 ng of plasmid DNA were transfected into 293-APCs per well with 0.5 μl of Lipofectamine 2000 (Thermo Fisher Scientific) according to the manufacturer's instructions and incubated at 37° C., in 5% CO2 overnight. For peptide presentation, synthesized peptides (GeneScript) were added to each well at different final concentrations from 10^2 to 10^−4 μM and incubated at 37° C., 5% CO2. The cells transfected with plasmids or pulsed with peptides were washed with TCM twice, and then cocultured with T cells (1×10^5/well). […]
# 96-well microplate (Greiner Bio-one) was coated with 50 μl of PBS containing anti-human IFN-γ (Thermo Fisher Scientific, primary antibody, 1 μg/ml) per well and incubated at 4° C. overnight. […] The plate was read at OD450 nm. The concentration of IFN-γ was calculated by standard reading. […]
molecule,measurement,setting,value
B1,recognition of antigen peptides by specific T-cell clones,T-cell clones of 135TIL,strongly recognized
same,recognition of titrated peptides by 135TIL (IFN-γ ELISA),135TIL,little or no activity
